Our source for the stoichiometry N values is paper doi:10.1101/2025.09.13.676036.

By stoichiometry N is commonly meant a count of units in the complex or per binding partner.

Assay [1] deals with Caldanaerovirga acetigignens double ferritin-like protein (Caldanaerovirga acetigignens). Kind of assay: SEC-MALS. A general note: In gel filtration, larger molecules generally elute earlier.
Assay [2] addresses Thermocrinis minervae double ferritin-like protein (Thermocrinis minervae). Kind of assay: SEC-SAXS.
The target is the same in assay [3]. Kind of assay: SEC-MALS.

As for “Caldanaerovirga acetigignens double ferritin-like protein (enzyme)”, in assay [1], the stoichiometry N came to 2. In the case of “Thermocrinis minervae double ferritin-like protein (enzyme)”, the stoichiometry N in assay [2] and in assay [3] was 2 throughout.
